Read-outs that look alike come from different tables or passages of the source.
How the values were obtained:
alpha-thrombin [1] = target: T1, alpha-thrombin (Homo sapiens, UniProt P00734;P00734 P00734:328-363,P00734:364-622); assay: no color change of array; 6 uM thrombin, 1xTAE-Mg, RT; conditions: label: Alexa Fluor 488; partially hybridised to anchor strand on DNA B tile
Method: (§1) Desired amount of detection targets were added into 10 μl multiplexed detection solution. Unless elsewhere mentioned, final concentration of detection targets was 0.5 μM for DNA targets, 6 μM for thrombin and 3 mM for ATP. The mixture was thoroughly mixed by vortexing and then incubated at room temperature for 30 min before imaging.
(§2) Two different aptamer binding targets were used: human α-thrombin and ATP (See Table 1). The DNA sequences of probe 3 and 4 are, in fact, the aptamer sequences for these two targets.

[2] = target: T2, BSA (bovine serum albumin) (UniProt P02769 P02769:25-607); assay: 6 uM BSA, no color change of array; conditions: label: Alexa Fluor 488
T2 sequence (P02769 25-607, one chain of several): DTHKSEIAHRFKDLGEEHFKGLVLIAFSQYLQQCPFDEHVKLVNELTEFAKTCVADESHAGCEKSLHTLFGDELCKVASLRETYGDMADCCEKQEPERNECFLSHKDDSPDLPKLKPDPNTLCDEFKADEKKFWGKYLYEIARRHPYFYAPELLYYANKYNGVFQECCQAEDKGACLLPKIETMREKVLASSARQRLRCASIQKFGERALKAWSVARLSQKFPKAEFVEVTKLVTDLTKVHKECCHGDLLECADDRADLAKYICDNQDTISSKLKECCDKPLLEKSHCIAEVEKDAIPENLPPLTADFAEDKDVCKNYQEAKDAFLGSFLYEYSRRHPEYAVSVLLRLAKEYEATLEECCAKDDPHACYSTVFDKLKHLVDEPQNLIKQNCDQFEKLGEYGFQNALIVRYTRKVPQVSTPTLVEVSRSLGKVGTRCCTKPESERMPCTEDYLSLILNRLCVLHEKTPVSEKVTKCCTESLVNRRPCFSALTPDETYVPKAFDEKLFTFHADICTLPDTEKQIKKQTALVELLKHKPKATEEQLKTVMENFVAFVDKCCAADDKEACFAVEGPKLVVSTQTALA
Method: as §1, §2

alpha-thrombin [3] = target: T1, alpha-thrombin
[4] = target: T2, BSA (bovine serum albumin); assay: no significant 3MI fluorescence change on array; conditions: label: 3MI at position 7
alpha-thrombin [5] = target: alpha-thrombin (Homo sapiens, UniProt P00734;P00734 P00734:328-363,P00734:364-622); assay: possibly CITED (ref 13); apparent Kd for strand-displacement probe; Table 1 labels of probes 3 and 4 appear swapped, Table 2 and sequence assign probe 3 to thro
[6] = partially hybridised to anchor strand on DNA B tile

## TTTAACAGCAGTTGAGTTGATACTACTGGCCTAATTCCA (ssDNA) [Probe 2 (HIV probe)]
alpha-thrombin [1]
  binding result: no binding
[2]; [6]
  binding result: no binding

## CGTCTCTACCTGATTACTATTGCATCT (ssDNA) [Probe 1 (SARS probe)]
alpha-thrombin [3]
  binding result: no binding
[2]; [6]
  binding result: no binding

## CACTGACCTGGGGGAGTATTGCGGAGGAAGGT (ssDNA) [Probe 4 (ATP aptamer containing)]
[2]; [6]
  binding result: no binding

## GGTTGGTGTGGTTGG (structured_DNA, dT7 replaced by 3-methylisoxanthopterin (3MI)) [3MI-TBA signaling aptamer on DNA tile array]
[4]
  binding result: no binding

## CACTGTGGTTGGTGTGGTTGG (ssDNA) [Probe 3 (thrombin aptamer containing)]
alpha-thrombin [5]
  Kd: ~400 nM
[2]; partially hybridised to anchor strand on DNA B tile (8-12 bp)
  binding result: no binding

— US20100009868, “Self-Assembled Combinatorial Encoding Nanoarrays for Multiplexed Biosensing” (The Arizona Board of Regents a body corporate acti ng for …, published 2010)
